# Results as given in PMC10397247.
# Like-named read-outs stand apart in the source and are kept apart here.
# What was measured:
# [1] = molecular target: T1, P6-AA-12HGe-A; experiment: two-hybrid library CCmax; conditions: mean of both orientations;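 further: natural log of median RNA to DNA barcode read ratio; higher means stronger binding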
# T1 chain: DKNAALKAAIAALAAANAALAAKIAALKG
# [2] = molecular target: T2, P6-AA-12HGe-D; experiment: two-hybrid library CCmax;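 further: natural log of median RNA to DNA barcode read ratio; higher means stronger binding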
# T2 chain: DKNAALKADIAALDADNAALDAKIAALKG
# [3] = molecular target: T3, P6-AA-12HGe-W; experiment: two-hybrid library CCmax; conditions: mean of both orientations;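 further: natural log of median RNA to DNA barcode read ratio; higher means stronger binding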
# T3 chain: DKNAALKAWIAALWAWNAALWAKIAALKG
# [4] = molecular target: T4, P6-AA-12HGe-T; experiment: two-hybrid library CCmax; conditions: mean of both orientations;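 further: natural log of median RNA to DNA barcode read ratio; higher means stronger binding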
# T4 chain: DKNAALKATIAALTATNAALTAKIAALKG
# [5] = molecular target: T5, P6-AA-12HGe-Q; experiment: two-hybrid library CCmax; conditions: mean of both orientations
# T5 chain: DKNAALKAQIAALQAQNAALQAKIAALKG
# [6] = molecular target: T6, P6-AA-12HGe-M; experiment: two-hybrid library CCmax; conditions: mean of both orientations
# T6 chain: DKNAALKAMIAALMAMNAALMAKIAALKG
# [7] = molecular target: T7, P6-AA-12HGe-H; experiment: two-hybrid library CCmax; conditions: mean of both orientations
# T7 chain: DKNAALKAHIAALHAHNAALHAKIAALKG
# [8] = molecular target: T8, P6-AA-12HGe-K; experiment: two-hybrid library CCmax; conditions: mean of both orientations
# T8 chain: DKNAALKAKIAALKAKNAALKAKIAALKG
# [9] = molecular target: T9, P6-AA-12HGe-R; experiment: two-hybrid library CCmax; conditions: mean of both orientations
# T9 chain: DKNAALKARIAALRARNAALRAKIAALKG
# [10] = molecular target: T10, P6-AA-12HGe-S; experiment: two-hybrid library CCmax; conditions: mean of both orientations
# T10 chain: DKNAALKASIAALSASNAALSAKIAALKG
# [11] = molecular target: T11, 4H3628-bN; experiment: two-hybrid library CCNG1
# T11 chain: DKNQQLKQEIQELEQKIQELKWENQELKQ
# [12] = molecular target: T12, O8-bP; experiment: two-hybrid library CCNG1
# T12 chain: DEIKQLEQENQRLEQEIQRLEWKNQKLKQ
# [13] = molecular target: T13, 4H906-bN; experiment: two-hybrid library CCNG1
# T13 chain: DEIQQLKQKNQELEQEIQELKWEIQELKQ
# [14] = molecular target: T14, 4H3613-bN; experiment: two-hybrid library CCNG1
# T14 chain: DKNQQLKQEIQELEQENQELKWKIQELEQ
# [15] = molecular target: T15, 4H3462-bN; experiment: two-hybrid library CCNG1
# T15 chain: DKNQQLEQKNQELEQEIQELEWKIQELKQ
# [16] = molecular target: T16, 4H626-bN; experiment: two-hybrid library CCNG1
# T16 chain: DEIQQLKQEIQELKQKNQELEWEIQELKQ
# [17] = molecular target: T17, 4H591-bN; experiment: two-hybrid library CCNG1
# T17 chain: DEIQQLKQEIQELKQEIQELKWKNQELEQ
# [18] = molecular target: T18, 4H3926-bN; experiment: two-hybrid library CCNG1
# T18 chain: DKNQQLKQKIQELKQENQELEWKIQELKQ
# [19] = molecular target: T19, 4H3497-bN; experiment: two-hybrid library CCNG1
# T19 chain: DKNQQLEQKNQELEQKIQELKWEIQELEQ
# [20] = molecular target: T20, 4H3112-bN; experiment: two-hybrid library CCNG1
# T20 chain: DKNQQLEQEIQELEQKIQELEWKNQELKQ
# [21] = molecular target: T21, 4H3010-bN; experiment: two-hybrid library CCNG1
# T21 chain: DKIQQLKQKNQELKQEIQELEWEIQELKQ
# [22] = molecular target: T22, 4H346-bN; experiment: two-hybrid library CCNG1
# T22 chain: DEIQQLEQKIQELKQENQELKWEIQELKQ
# [23] = molecular target: T23, 4H575-bN; experiment: two-hybrid library CCNG1
# T23 chain: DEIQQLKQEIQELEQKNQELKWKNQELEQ
# [24] = molecular target: T24, 4H918-bN; experiment: two-hybrid library CCNG1
# T24 chain: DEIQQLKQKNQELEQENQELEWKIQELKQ
# [25] = molecular target: T25, 4H780-bN; experiment: two-hybrid library CCNG1
# T25 chain: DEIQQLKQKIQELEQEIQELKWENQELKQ
# [26] = molecular target: T26, 4H797-bN; experiment: two-hybrid library CCNG1
# T26 chain: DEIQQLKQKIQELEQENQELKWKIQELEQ
# [27] = molecular target: T27, 4H3427-bN; experiment: two-hybrid library CCNG1
# T27 chain: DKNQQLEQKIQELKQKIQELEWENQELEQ
# [28] = molecular target: T28, 4H855-bN; experiment: two-hybrid library CCNG1
# T28 chain: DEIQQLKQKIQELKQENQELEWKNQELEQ
# [29] = molecular target: T29, 4H953-bN; experiment: two-hybrid library CCNG1
# T29 chain: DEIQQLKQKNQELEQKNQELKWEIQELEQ
# [30] = molecular target: T30, 4H4073-bN; experiment: two-hybrid library CCNG1
# T30 chain: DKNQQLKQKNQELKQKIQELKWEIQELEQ
# [31] = molecular target: T31, 4H457-bN; experiment: two-hybrid library CCNG1
# T31 chain: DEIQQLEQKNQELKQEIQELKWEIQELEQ
# [32] = molecular target: T32, 4H754-bN; experiment: two-hybrid library CCNG1
# T32 chain: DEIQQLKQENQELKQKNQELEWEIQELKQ
# [33] = molecular target: T33, 4H968-bN; experiment: two-hybrid library CCNG1
# T33 chain: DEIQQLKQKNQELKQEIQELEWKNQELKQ
# [34] = molecular target: T34, 4H683-bN; experiment: two-hybrid library CCNG1
# T34 chain: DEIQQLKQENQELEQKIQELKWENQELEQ
interaction score [1],interaction score ([2]; mean of both orientations),interaction score [3],interaction score [4],interaction score [5],interaction score [6],interaction score [7],interaction score [8],interaction score [9],interaction score [10],other results,Binder
-0.131,-1.67,-1.05,-0.564,0.162,0.011,-1.46,-2.03,-1.34,-0.198,–,DENAALEAWIAALWAWNAALWAEIAALEG [P5-AA-12HGe-W]
–,–,–,–,–,–,–,–,–,–,interaction score [11]: 0.522; interaction score [12]: -2.6; interaction score [13]: -0.328; interaction score [14]: -0.0373; interaction score [15]: 0.127; interaction score [16]: 0.696; interaction score [17]: -0.826; interaction score [18]: -0.216; interaction score [19]: 0.781,DKNQQLEQKNQELEQEIQELEWKIQELKQ [4H3462-bN]
0.13,-0.685,-1.7,-0.204,1.15,-0.376,-1.35,-0.748,-1.36,-0.593,–,DENAALEARIAALRARNAALRAEIAALEG [P5-AA-12HGe-R]
–,–,–,–,–,–,–,–,–,–,interaction score [20]: -1.33; interaction score [21]: -0.256; interaction score [22]: -1.97; interaction score [23]: -1.47; interaction score [24]: -0.536; interaction score [25]: -0.214; interaction score [26]: -0.873; interaction score [27]: -0.668; interaction score [28]: -0.686; interaction score [29]: -1.77; interaction score [30]: -1.32; interaction score [31]: -0.409; interaction score [32]: -1.56; interaction score [33]: -1.13; interaction score [18]: -0.546; interaction score [34]: 1.02,DKIQQLKQKNQELKQEIQELEWEIQELKQ [4H3010-bN]
1.23,-1.51,-0.981,0.892,2.02,0.542,2.11,1.8,1.58,-0.0947,–,DENAALEAEIAALEAENAALEAEIAALEG [P5-AA-12HGe-E]
-0.0467,-1.71,-1.07,-0.438,1.22,-0.283,-1.26,0.446,0.245,-1.32,–,DENAALEATIAALTATNAALTAEIAALEG [P5-AA-12HGe-T]
1.19,-1.9,-1.08,1.2,1.76,1.12,-0.211,1.68,1.09,0.0975,–,DENAALEAQIAALQAQNAALQAEIAALEG [P5-AA-12HGe-Q]
1.15,–,-0.0463,1.54,2.16,0.995,-0.103,1.12,0.594,-0.47,interaction score [2]: -1.48,DENAALEAMIAALMAMNAALMAEIAALEG [P5-AA-12HGe-M]
-1.21,-1.45,-1.53,-1.05,-0.404,-1.66,-1.52,-0.261,-0.734,-2.05,–,DENAALEASIAALSASNAALSAEIAALEG [P5-AA-12HGe-S]
-1.85,-1.85,-1.67,-1.98,-1.56,-2.09,-2.35,-0.581,-0.833,-2.03,–,DENAALEADIAALDADNAALDAEIAALEG [P5-AA-12HGe-D]
-0.307,-1.93,-0.852,-0.218,0.323,0.0241,-0.445,-0.203,-0.752,-1.51,–,DENAALEAYIAALYAYNAALYAEIAALEG [P5-AA-12HGe-Y]
-0.0358,-1.87,-0.644,-0.125,1.38,0.58,-0.816,0.623,0.304,-1.02,–,DENAALEAAIAALAAANAALAAEIAALEG [P5-AA-12HGe-A]
-1.29,-1.79,-2.54,-1.15,-0.057,-1.41,-1.62,-1.26,-1.38,-2,–,DENAALEAHIAALHAHNAALHAEIAALEG [P5-AA-12HGe-H]
